Measurements reported in patent publication US20100272750A1.

What was measured:
HLA A0201 (human) = experiment: 125I-probe competition, purified HLA
HLA A0206 (human) = experiment: 125I-probe competition, purified HLA
HLA A0202 (human) = experiment: 125I-probe competition, purified HLA
HLA A0203 (human) = experiment: 125I-probe competition, purified HLA
HLA A6802 (human) = experiment: 125I-probe competition, purified HLA
HLA A3101 (human) = experiment: 125I-probe competition, purified HLA
HLA A0301 (human) = experiment: 125I-probe competition, purified HLA
HLA A1101 (human) = experiment: 125I-probe competition, purified HLA
HLA A3301 (human) = experiment: 125I-probe competition, purified HLA
HLA A6801 (human) = experiment: 125I-probe competition, purified HLA
HLA DRB1*0901 (human) [1] = experiment: competition with 125I probe peptide, purified HLA
HLA DRB1*0802 (human) [2] = experiment: competition with 125I probe peptide, purified HLA
HLA DRB1*0301 (human) = experiment: competition with 125I probe peptide, purified HLA
HLA DRB1*0404 (human) [3] = experiment: competition with 125I probe peptide, purified HLA
HLA DRB1*0401 (human) [4] = experiment: competition with 125I probe peptide, purified HLA
HLA DRB1*0405 (human) [5] = experiment: competition with 125I probe peptide, purified HLA
HLA DRB1*1302 (human) = experiment: competition with 125I probe peptide, purified HLA
HLA DRB4*0101 (human) [6] = experiment: competition with 125I probe peptide, purified HLA
HLA DRB5*0101 (human) = experiment: competition with 125I probe peptide, purified HLA
HLA DRB1*1501 (human) [7] = experiment: competition with 125I probe peptide, purified HLA
HLA DRB1*0701 (human) [8] = experiment: competition with 125I probe peptide, purified HLA
HLA DRB1*1101 (human) [9] = experiment: competition with 125I probe peptide, purified HLA
HLA DRB1*0101 (human) [10] = experiment: competition with 125I probe peptide, purified HLA
HLA DRB1*0901 (human) [11] = experiment: competition with 125I probe peptide, purified HLA; crude peptide batch
HLA DRB1*1201 (human) [12] = experiment: as above
HLA DRB1*0802 (human) [13] = experiment: as above
HLA DRB1*0404 (human) [14] = experiment: as above
HLA DRB1*0401 (human) [15] = experiment: as above
HLA DRB1*0405 (human) [16] = experiment: as above
HLA DRB4*0101 (human) [17] = experiment: as above
HLA DRB1*1501 (human) [18] = experiment: as above
HLA DRB1*0701 (human) [19] = experiment: as above
HLA DRB1*1101 (human) [20] = experiment: as above
HLA DRB1*0101 (human) [21] = experiment: as above
HLA DRB1*1201 (human) [22] = experiment: competition with 125I probe peptide, purified HLA

Binder	IC50 (HLA A3101 (human)) [nM]	IC50 (HLA A0301 (human)) [nM]	IC50 (HLA A1101 (human)) [nM]	IC50 (HLA A3301 (human)) [nM]	IC50 (HLA A6801 (human)) [nM]	IC50 (HLA DRB1*0404 (human) [3]) [nM]	IC50 (HLA DRB1*0401 (human) [4]) [nM]	IC50 (HLA DRB1*0405 (human) [5]) [nM]	IC50 (HLA DRB4*0101 (human) [6]) [nM]	IC50 (HLA DRB5*0101 (human)) [nM]	IC50 (HLA DRB1*0701 (human) [8]) [nM]	IC50 (HLA DRB1*0101 (human) [10]) [nM]	also measured
TLYAHIQCL (modifications not checked) [HPV45.E1.252]	–	–	–	–	–	–	–	–	–	–	–	–	IC50 (HLA A0201 (human)): 34 nM; IC50 (HLA A0206 (human)): 417 nM; IC50 (HLA A0202 (human)): 4.9 nM; IC50 (HLA A0203 (human)): 6.2 nM; IC50 (HLA A6802 (human)): 1610 nM
ISFAGIVTK (modifications not checked) [HPV31.E2.205]	115	17	1.6	4370	–	–	–	–	–	–	–	–	–
VVLLLVRYK (modifications not checked) [HPV16.E1.274]	0.1	6.3	4.1	6.1	76	–	–	–	–	–	–	–	–
AVMCRHYKR (modifications not checked) [HPV45.E1.399]	52	311	38	24	29	–	–	–	–	–	–	–	–
WKHIRLECVLMYKAR (modifications not checked) [HPV31.E2.033 HTL epitope]	–	–	–	–	–	307	263	71	102	412	16400	1440	IC50 (HLA DRB1*0901 (human) [1]): 11800 nM; IC50 (HLA DRB1*0802 (human) [2]): 476 nM; IC50 (HLA DRB1*0301 (human)): 146 nM; IC50 (HLA DRB1*1302 (human)): 54 nM; IC50 (HLA DRB1*1501 (human) [7]): 134 nM; IC50 (HLA DRB1*1101 (human) [9]): 81 nM
LQAIELQLTLETIYN (modifications not checked) [HPV16.E2.070 HTL epitope]	–	–	–	–	–	–	–	–	–	–	–	–	IC50 (HLA DRB1*0901 (human) [11]): 1430 nM; IC50 (HLA DRB1*1201 (human) [12]): 268 nM; IC50 (HLA DRB1*0802 (human) [13]): 7610 nM; IC50 (HLA DRB1*0404 (human) [14]): 282 nM; IC50 (HLA DRB1*0401 (human) [15]): 37 nM; IC50 (HLA DRB1*0405 (human) [16]): 384 nM; IC50 (HLA DRB4*0101 (human) [17]): 2 nM; IC50 (HLA DRB1*1501 (human) [18]): 688 nM; IC50 (HLA DRB1*0701 (human) [19]): 3280 nM; IC50 (HLA DRB1*1101 (human) [20]): 4380 nM; IC50 (HLA DRB1*0101 (human) [21]): 42 nM
QRFHNIRGRWTGRCM (modifications not checked) [HPV16.E6.130 HTL epitope]	–	–	–	–	–	4110	2900	4470	4550	919	277	36	IC50 (HLA DRB1*1201 (human) [22]): 14600 nM; IC50 (HLA DRB1*0802 (human) [2]): 894 nM; IC50 (HLA DRB1*1302 (human)): 5310 nM; IC50 (HLA DRB1*1501 (human) [7]): 17200 nM; IC50 (HLA DRB1*1101 (human) [9]): 574 nM
STAAALYWYK (modifications not checked) [HPV16.E1.314]	35	5	2	128	6	–	–	–	–	–	–	–	–
TVYVFCFLL (modifications not checked) [HPV18.E5.51]	–	–	–	–	–	–	–	–	–	–	–	–	IC50 (HLA A0201 (human)): 175 nM; IC50 (HLA A0206 (human)): 26 nM; IC50 (HLA A0202 (human)): 587 nM; IC50 (HLA A0203 (human)): 769 nM; IC50 (HLA A6802 (human)): 41 nM
NGWFYVEAVIDRQTG (modifications not checked) [HPV31.E1.15 HTL epitope]	–	–	–	–	–	18800	845	178	627	1200	1460	1860	IC50 (HLA DRB1*0901 (human) [1]): 3670 nM; IC50 (HLA DRB1*0301 (human)): 2800 nM
DWVMAIFGVNPTVAEGF (modifications not checked) [HPV45.E1.228 HTL epitope]	–	–	–	–	–	20	91	92	571	387	52	487	IC50 (HLA DRB1*0901 (human) [1]): 17900 nM; IC50 (HLA DRB1*0802 (human) [2]): 4260 nM; IC50 (HLA DRB1*0301 (human)): 3750 nM; IC50 (HLA DRB1*1302 (human)): 68 nM; IC50 (HLA DRB1*1501 (human) [7]): 108 nM; IC50 (HLA DRB1*1101 (human) [9]): 4960 nM
ATMCRHYKR (modifications not checked) [HPV16.E1.406]	10	90	14	17	35	–	–	–	–	–	–	–	–
SVICFVNSK (modifications not checked) [HPV16.E1.497]	25	109	2.2	51	5.4	–	–	–	–	–	–	–	–
